Assay results: publication PMC4624675 (2015)

Target: C-terminal Tandem UBL domain of human USP7 (TUD^USP7), wild type (human)
Experiment: ITC

C-terminal Tandem UBL domain of human USP7 (TUD^USP7), wild type (human), sequence (chain, as listed by the source): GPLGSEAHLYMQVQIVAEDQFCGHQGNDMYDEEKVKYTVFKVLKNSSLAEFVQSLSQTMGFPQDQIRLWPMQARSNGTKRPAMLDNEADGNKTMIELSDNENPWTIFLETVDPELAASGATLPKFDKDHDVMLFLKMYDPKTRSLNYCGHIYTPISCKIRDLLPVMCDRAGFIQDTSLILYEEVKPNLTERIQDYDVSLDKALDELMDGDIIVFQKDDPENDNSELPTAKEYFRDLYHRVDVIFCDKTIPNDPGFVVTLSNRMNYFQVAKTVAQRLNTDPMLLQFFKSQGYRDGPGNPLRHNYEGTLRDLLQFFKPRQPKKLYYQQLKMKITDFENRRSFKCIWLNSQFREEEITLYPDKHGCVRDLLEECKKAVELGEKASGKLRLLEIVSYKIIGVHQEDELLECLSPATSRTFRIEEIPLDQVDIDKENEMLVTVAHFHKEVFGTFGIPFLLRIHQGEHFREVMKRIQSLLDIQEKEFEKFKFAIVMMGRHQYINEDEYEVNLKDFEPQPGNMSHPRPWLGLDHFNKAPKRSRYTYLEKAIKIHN

In order of rising Kd:
1. SGPRGPRKCARKTRHAETSGA [GST-tagged ICP0 (613–633), wild type]  270 nM
2. TGKGKWKRKSAGGGPSRAGSPRRTSKKTKVEPY [UHRF1 (642–674) (GST pull-down bait)]  1540 nM
3. KGKGKGKGKGKP [KG-Linker of DNMT1 (GST pull-down bait)]  3720 nM
